Data from patent US9987329B2, “Methods for treating peripheral nerve damage” (Cornell University, priority 2014, dated 2018).

Experiments:
[1] = tested on: trigeminal ganglion (TG) neuronal cells; experiment: Trigeminal ganglion neuronal growth assay; type: cell-based, mouse
Description: Trigeminal ganglion (TG) neuronal cells were obtained and cultured as described previously. Pan, Z., Fukuoka et al., FASEB J. 27, 2756-2767 (2013). To evaluate the effect of VEGF-B on neuronal growth, TG neuronal cells were treated with 10-100 ng/ml recombinant mouse VEGF-B^186 (R&D 767-VE-010). The VEGF-B treatments were replenished every other day. Neurite formation and growth was followed up to 3 days. […] VEGF receptors were inhibited by using neutralizing antibodies against VEGFR1 (R&D AF471), VEGFR2 (R&D MAB4431) and Neuropilin 1 (NRP1) (R&D MAB566). TG cells were incubated in a dose dependent manner with anti-VEGFR1, anti-VEGFR2 or anti-NRP1 for 1 hour prior to the addition of 50 ng/ml VEGF-B. The tyrosine kinase domains of VEGFR2 were inhibited with specific inhibitors by incubating TG neuronal cells with 10 μM SU 1498 (Sigma T4192) or 5 nM Ki 8751 (Sigma K1265) for 1 hr before adding 50 ng/ml VEGF-B. All neurite growth was imaged with an AxioObserver Z1 fluorescence microscope in the YFP channel attached to an AxioCam HRm digital camera (Zeiss) operated by AxioVision 4.0 software. Images were analyzed using Neurolucida 9 (MBF Bioscience) a quantitative nerve tracing software.

TG neuronal cells = experiment: Cell viability assay (Live/Dead) of TG neuronal cells; type: cell-based, mouse; conditions: 50 ng/ml single dose on first day of culture without serum; day 2 and 3
Description: The effect of VEGF-B on the survival of TG neuronal cells was evaluated with the Live/Dead Viability/Cytotoxicity kit (Invitrogen), as described in Pan, Z., Fukuoka et al., FASEB J. 27, 2756-2767 (2013).

[2] = tested on: corneal nerves of C57BL/6 and Vegf-b−/− mice; experiment: Corneal nerve regeneration after epithelial debridement, subconjunctival injection; type: in vivo, mouse; conditions: 0.5 ng subconjunctival single bolus, 7 days after debridement
Description: Wild type C57BL/6 and Vegf-b^-/- mice were subject to corneal epithelial debridement as described above or left intact. A 5 ul volume containing 0.5 ng VEGF-B^186 in PBS was injected subconjunctivally, at the lateral temporal bulbar conjunctiva, using a 10-μl micro-syringe (Hamilton Co). Equal volume of 0.1% bovine serum albumin (BSA) was used in control mice. The recovery of the corneal epithelial injury was imaged at 24, 40 and 48 hours by applying 1% fluorescein solution to the corneal surface and wounds photographed under diffuse cobalt blue light attached to a slit lamp bio-microscope (Nikon FS-3, Nikon) connected to a digital camera (Canon EOS 60D). The corneal epithelial defect areas were quantified by analyzing the images with Photoshop CS4 (Adobe). Corneas were harvested after one week for immunodetection of nerves. Possible growth of blood vessel into the cornea was monitored by slit lamp examination. […] The YFP fluorescent nerves were imaged with a fluorescence microscope at the site of pellet implantation and at a site 180 degrees opposite to the pellet. Images were analyzed using Neurolucida. […] Quantification of corneal nerves regeneration was obtained from corneal wholemount images traced and analyzed with Neurolucida 9 software. […] Central and peripheral cornea nerve densities were calculated and expressed as a percentage of control.

[3] = tested on: corneal epithelium of C57BL/6 and Vegf-b−/− mice; experiment: Corneal epithelial wound healing after debridement (fluorescein staining); type: in vivo, mouse; conditions: 0.5 ng subconjunctival, 48 hours (FIG. 6A)
Description: (§1) Wild type C57BL/6 and Vegf-b^−/− mice were subject to corneal epithelial debridement as described above or left intact. A 5 ul volume containing 0.5 ng VEGF-B^186 in PBS was injected subconjunctivally, at the lateral temporal bulbar conjunctiva, using a 10-μl micro-syringe (Hamilton Co). Equal volume of 0.1% bovine serum albumin (BSA) was used in control mice. The recovery of the corneal epithelial injury was imaged at 24, 40 and 48 hours by applying 1% fluorescein solution to the corneal surface and wounds photographed under diffuse cobalt blue light attached to a slit lamp bio-microscope (Nikon FS-3, Nikon) connected to a digital camera (Canon EOS 60D). The corneal epithelial defect areas were quantified by analyzing the images with Photoshop CS4 (Adobe). Corneas were harvested after one week for immunodetection of nerves. Possible growth of blood vessel into the cornea was monitored by slit lamp examination.

[4] = tested on: corneal nerves of Thy-1-YFP mice; experiment: Corneal nerve regeneration with combinations of VEGF-A and VEGF-B; type: in vivo, mouse; conditions: ligand administered separately, two weeks post-injury (FIG. 14)
Description: Thy-1-YFP mice were subjected to cornea epithelium debridement to ablate the superficial nerve endings that innervate the cornea Immediately after injury, the mice were treated with different combinations of VEGF-A and VEGF-B. As shown, combinations of VEGF ligands induce greater nerve regeneration in vivo.
The observed effects were also recapitulated in vivo. Thy-1-YFP neurofluorescent mice were used to induce a corneal epithelium injury that results in ablation of the superficial nerve endings of the cornea. The mice were then treated with different combinations of VEGF-A and VEGF-B, and nerve regeneration was analyzed after two weeks post-injury.

cornea = conditions: mouse, in vivo
Description: as §1

[5] = tested on: trigeminal ganglion (TG) neuronal cells; experiment: Trigeminal ganglion neuronal growth assay; type: cell-based, mouse; conditions: VEGF-B on three consecutive days, culture day 6 (FIG. 11)
[6] = 50 ng/ml each, three days in culture (FIG. 2B)
[7] = 50 ng/ml, three days in culture (FIG. 2B)

B1: recombinant mouse VEGF-B^186 (protein, listed as Homo sapiens)
chain: MSPLLRRLLLAALLQLAPAQAPVSQPDAPGHQRKVVSWIDVYTRATCQPREVVVPLTVELMGTVAKQLVPSCVTVQRCGGCCPDDGLECVPTGQHQVRMQILMIRYPSSQLGEMSLEEHSQCECRPKKKDSAVKPDRAATPHHRPQPRSVPGWDSAPGAPSPADITHPTPAPGPSAHAAPSTTSALTPGPAAAAADAAASSVAKGGA
notes: vascular endothelial growth factor B; recombinant mouse VEGF-B186 (R&D 767-VE-010)
length of neurites compared with untreated controls ([1]; 50 ng/ml VEGF-B, 3 days in culture (FIG. 1)): almost four folds greater
neurite elongation compared with VEGF-A treatment [1, 6]: more than 2 folds
number of branching nodes compared with VEGF-A treated neurons [1, 6]: more than 4 folds
pattern of neurite growth (elongation and branching) ([1]; 50 ng/ml, three days in culture (FIG. 2A)): extensive elongation and branching of the neurites
neurite elongation compared with untreated control [1, 7]: five folds higher
number of branching nodes compared with untreated control [1, 7]: seven fold higher
dose dependence of neurite growth induction ([1]; 10-100 ng/ml VEGF-B (FIG. 7)): dose-dependent
most potent dose for inducing neurite elongation and branching ([1]; increasing concentrations of VEGF-B, 3 days in culture (FIG. 7)): 50 ng/mL
cells surviving (neuronal viability) (TG neuronal cells): 50%
corneal nerve regeneration into the injured zone ([2]; Vegf-b−/− mice): confined to the peripheral cornea
corneal nerve regeneration into the injured zone ([2]; wild-type mice): enhanced nerve regeneration in both the central and peripheral corneas
injured epithelial area compared with untreated controls ([3]; Vegf-b−/− mice): only half the injured area
epithelial healing ([3]; wild type mice): almost complete healing
nerve regeneration [4]: induced greater nerve regeneration
neovascularization of the cornea (cornea): did not produce any unwanted neovascularization
dendrite length and branching [5]: longer dendrites and more branches
